Reference: paper doi:10.1101/2022.10.05.511023 (bioRxiv, 2022)

Legend:
[1] = molecular target: T1, non-farnesylated GBP1 (guanylate binding protein 1) (human), P32455; experiment: dynamic light scattering; conditions: remark: other sources report otherwise
T1 chain: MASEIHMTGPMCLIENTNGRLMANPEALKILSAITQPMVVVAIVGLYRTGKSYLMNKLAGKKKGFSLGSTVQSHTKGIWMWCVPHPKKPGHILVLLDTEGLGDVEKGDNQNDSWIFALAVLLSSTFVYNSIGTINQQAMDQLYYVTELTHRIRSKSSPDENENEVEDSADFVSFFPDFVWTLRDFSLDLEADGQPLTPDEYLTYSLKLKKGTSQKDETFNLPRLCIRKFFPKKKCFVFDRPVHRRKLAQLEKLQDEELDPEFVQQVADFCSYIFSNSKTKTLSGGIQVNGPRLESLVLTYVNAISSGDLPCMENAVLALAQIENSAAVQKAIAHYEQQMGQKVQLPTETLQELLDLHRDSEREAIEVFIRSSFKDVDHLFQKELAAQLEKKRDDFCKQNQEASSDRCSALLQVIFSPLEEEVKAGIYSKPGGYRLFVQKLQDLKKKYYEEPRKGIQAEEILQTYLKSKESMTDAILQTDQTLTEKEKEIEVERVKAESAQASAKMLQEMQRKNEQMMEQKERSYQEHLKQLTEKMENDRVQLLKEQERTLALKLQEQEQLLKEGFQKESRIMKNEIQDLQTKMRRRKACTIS

[2] = molecular target: T2, non-geranylgeranylated GBP5 (guanylate binding protein 5) (human), Q96PP8; experiment: dynamic light scattering; conditions: remark: other sources report otherwise
T2 chain: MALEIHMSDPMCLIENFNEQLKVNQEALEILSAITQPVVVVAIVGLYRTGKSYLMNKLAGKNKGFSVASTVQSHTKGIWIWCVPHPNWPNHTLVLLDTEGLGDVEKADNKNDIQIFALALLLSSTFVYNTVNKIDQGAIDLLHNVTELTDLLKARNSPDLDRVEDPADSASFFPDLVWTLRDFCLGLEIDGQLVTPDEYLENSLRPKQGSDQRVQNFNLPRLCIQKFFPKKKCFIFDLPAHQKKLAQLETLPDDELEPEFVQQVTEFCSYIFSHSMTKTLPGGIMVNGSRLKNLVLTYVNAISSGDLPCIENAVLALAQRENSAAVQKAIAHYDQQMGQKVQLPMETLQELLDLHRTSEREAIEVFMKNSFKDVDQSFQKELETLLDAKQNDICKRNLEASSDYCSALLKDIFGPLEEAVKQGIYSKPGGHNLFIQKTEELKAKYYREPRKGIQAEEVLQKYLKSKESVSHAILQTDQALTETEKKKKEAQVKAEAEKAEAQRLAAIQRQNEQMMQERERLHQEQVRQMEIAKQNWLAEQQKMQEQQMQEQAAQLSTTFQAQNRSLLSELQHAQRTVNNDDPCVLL

[3] = molecular target: T3, geranylgeranylated GBP5 (guanylate binding protein 5) (human), Q96PP8; experiment: dynamic light scattering; conditions: remark: other sources report otherwise
T3 chain: T2 chain

[4] = molecular target: the molecule itself; experiment: dynamic light scattering
[5] = molecular target: T4, farnesylated GBP1 (guanylate binding protein 1) (human, UniProt P32455 1-592, farnesylated in vitro (C-terminal farnesyl moiety)); experiment: absorbance-based light scattering
T4 sequence: T1 chain

B1: non-farnesylated GBP1 (guanylate binding protein 1), P32455 1-592 (natural protein)
chain: T1 chain
stoichiometry N [1]: 2

B2: non-geranylgeranylated GBP5 (guanylate binding protein 5), Q96PP8 1-586 (natural protein)
chain: T2 chain
stoichiometry N [2]: 2

B3: geranylgeranylated GBP5 (guanylate binding protein 5), Q96PP8 1-586 (natural protein)
chain: T2 chain
modifications: here or on the partner: geranylgeranylated in vitro (C-terminal geranylgeranyl moiety); geranylgeranylated in vitro (C-terminal geranylgeranyl moiety)
stoichiometry N [3]: 2

B4: geranylgeranylated GBP2 (guanylate binding protein 2) (natural protein, human, UniProt P32456 1-591, looked up)
chain: MAPEINLPGPMSLIDNTKGQLVVNPEALKILSAITQPVVVVAIVGLYRTGKSYLMNKLAGKKNGFSLGSTVKSHTKGIWMWCVPHPKKPEHTLVLLDTEGLGDIEKGDNENDSWIFALAILLSSTFVYNSMGTINQQAMDQLHYVTELTDRIKANSSPGNNSVDDSADFVSFFPAFVWTLRDFTLELEVDGEPITADDYLELSLKLRKGTDKKSKSFNDPRLCIRKFFPKRKCFVFDWPAPKKYLAHLEQLKEEELNPDFIEQVAEFCSYILSHSNVKTLSGGIPVNGPRLESLVLTYVNAISSGDLPCMENAVLALAQIENSAAVEKAIAHYEQQMGQKVQLPTETLQELLDLHRDSEREAIEVFMKNSFKDVDQMFQRKLGAQLEARRDDFCKQNSKASSDCCMALLQDIFGPLEEDVKQGTFSKPGGYRLFTQKLQELKNKYYQVPRKGIQAKEVLKKYLESKEDVADALLQTDQSLSEKEKAIEVERIKAESAEAAKKMLEEIQKKNEEMMEQKEKSYQEHVKQLTEKMERDRAQLMAEQEKTLALKLQEQERLLKEGFENESKRLQKDIWDIQMRSKSLEPICNIL
modifications: geranylgeranylated in vitro (C-terminal geranylgeranyl moiety)
binding result [4]: binds | binding result [5]: binds

B5: geranylgeranylated GBP5 (guanylate binding protein 5) (natural protein, human, UniProt Q96PP8 1-586, looked up)
chain: T2 chain
modifications: geranylgeranylated in vitro (C-terminal geranylgeranyl moiety)
binding result [5]: binds

B6: non-geranylgeranylated GBP2 (guanylate binding protein 2) (natural protein, human, UniProt P32456 1-591, looked up)
chain: B4 chain
stoichiometry N [4]: 2
